# Assay results: paper PMC8670446 (2021)
# B1: Sis1 (natural protein)
# chain: MVKETKLYDLLGVSPSANEQELKKGYRKAALKYHPDKPTGDTEKFKEISEAFEILNDPQKREIYDQYGLEAARSGGPSFGPGGPGGAGGAGGFPGGAGGFSGGHAFSNEDAFNIFSQFFGGSSPFGGADDSGFSFSSYPSGGGAGMGGMPGGMGGMHGGMGGMPGGFRSASSSPTYPEEETVQVNLPVSLEDLFVGKKKSFKIGRKGPHGASEKTQIDIQLKPGWKAGTKITYKNQGDYNPQTGRRKTLQFVIQEKSHPNFKRDGDDLIYTLPLSFKESLLGFSKTIQTIDGRTLPLSRVQPVQPSQTSTYPGQGMPTPKNPSQRGNLIVKYKVDYPISLNDAQKRAIDENF
# Biological target: Ssa1 (S. cerevisiae, UniProt P10591 1-642)
# Experiment: BLI; apparent KD from equilibrium levels; His6-SUMO-Ssa1 immobilized
# Sequence of Ssa1 (P10591 whole entry): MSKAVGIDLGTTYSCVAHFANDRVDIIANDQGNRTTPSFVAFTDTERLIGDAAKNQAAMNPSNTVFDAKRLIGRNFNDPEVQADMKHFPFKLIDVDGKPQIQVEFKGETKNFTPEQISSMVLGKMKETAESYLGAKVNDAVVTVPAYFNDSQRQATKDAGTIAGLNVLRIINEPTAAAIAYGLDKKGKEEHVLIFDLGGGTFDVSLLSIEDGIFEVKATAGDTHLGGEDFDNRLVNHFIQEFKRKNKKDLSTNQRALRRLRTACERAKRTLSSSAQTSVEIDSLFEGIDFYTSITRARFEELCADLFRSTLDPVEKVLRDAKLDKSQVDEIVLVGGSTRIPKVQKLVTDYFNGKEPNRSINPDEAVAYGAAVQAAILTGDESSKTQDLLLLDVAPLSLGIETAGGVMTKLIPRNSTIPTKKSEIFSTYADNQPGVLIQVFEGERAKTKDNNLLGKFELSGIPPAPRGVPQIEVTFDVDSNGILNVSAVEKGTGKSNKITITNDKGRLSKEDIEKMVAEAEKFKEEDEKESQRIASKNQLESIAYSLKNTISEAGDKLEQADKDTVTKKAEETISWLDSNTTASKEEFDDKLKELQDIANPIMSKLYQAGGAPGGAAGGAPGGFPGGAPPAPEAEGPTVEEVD
binder,measurement,value
B1,Kd,210 nM
